Each block holds one binder with its values, some of them ahead of it.
Experiments:
[1] = target: T1, TatC with a hexa-histidine tag on the C-terminus, co-produced with TatB (with or without TatA, TatD, TatE) (Escherichia coli, UniProt P69423 1-258); assay: co-purification by Ni(II) affinity chromatography + SEC; TatCHis-containing complexes from digitonin-solubilized membranes of strain DADE producing TatABCHisDE; Ni(II) HiTrap column, then Superose 6 in 20 mM MOPS-HCl pH 7.2, 200 mM NaCl, 0.1% digitonin; peak fraction on SDS-PAGE, Coomassie; details: partners not purified
T1 construct: TatC, integral membrane protein of the Escherichia coli Tat system; protomer molecular weight printed as 28.9 kDa; The printed protomer weight of 28.9 kDa fits the whole TatC protein; also called TatCHis; TatCHis of Tat(A)BCHis; source: E. coli strain DADE (MC4100 ΔtatABCDΔtatE), overproduced from pFAT75CH (TatABCHisDE) or pFAT75CHΔA (TatBCHis); digitonin-solubilized membranes; not shown: His6, …
T1 sequence (looked up): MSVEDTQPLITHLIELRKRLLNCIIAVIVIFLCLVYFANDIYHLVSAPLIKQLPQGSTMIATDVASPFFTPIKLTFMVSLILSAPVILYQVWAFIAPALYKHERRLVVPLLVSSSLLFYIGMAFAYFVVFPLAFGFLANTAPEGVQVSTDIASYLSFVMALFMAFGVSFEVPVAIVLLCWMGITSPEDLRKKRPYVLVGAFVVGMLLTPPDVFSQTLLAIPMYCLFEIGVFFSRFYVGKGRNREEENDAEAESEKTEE

[2] = target: the molecule itself; assay: native gel or EMSA; BN-PAGE (5-18% gradient) of digitonin-solubilized whole membranes of strain DADE overproducing TatBHis, TatABCHisDE or TatBCHis; immunoblot with anti-TatB or anti-His tag
[3] = target: the molecule itself; assay: native gel or EMSA; BN-PAGE (4-16% gradient) of TatCHis variants purified in digitonin from the Tat wild-type strain C43(DE3); Coomassie stained

binding result [1]: binds
B1: TatB, untagged, co-produced with TatCHis (natural protein, Escherichia coli, UniProt P69425 1-171, looked up)
chain: MFDIGFSELLLVFIIGLVVLGPQRLPVAVKTVAGWIRALRSLATTVQNELTQELKLQEFQDSLKKVEKASLTNLTPELKASMDELRQAAESMKRSYVANDPEKASDEAHTIHNPVVKDNEAAHEGVTPAAAQTQASSPEQKPETTPEPVVKPAADAEPKTAAPSPSSSDKP
notes: TatB, integral membrane protein of the Escherichia coli Tat system; protomer molecular weight printed as 18.4 kDa; source: E. coli strain DADE (MC4100 ΔtatABCDΔtatE), overproduced from pFAT75CH or pFAT75CHΔA; digitonin-solubilized membranes

B2: TatB with a C-terminal hexa-histidine tag (natural protein, Escherichia coli, UniProt P69425 1-171, looked up)
chain: MFDIGFSELLLVFIIGLVVLGPQRLPVAVKTVAGWIRALRSLATTVQNELTQELKLQEFQDSLKKVEKASLTNLTPELKASMDELRQAAESMKRSYVANDPEKASDEAHTIHNPVVKDNEAAHEGVTPAAAQTQASSPEQKPETTPEPVVKPAADAEPKTAAPSPSSSDKP
notes: TatB, integral membrane protein of the Escherichia coli Tat system; protomer molecular weight printed as 18.4 kDa; Produced in the absence of any other Tat components; detected with anti-TatB serum; also called TatBHis; source: E. coli strain DADE (MC4100 ΔtatABCDΔtatE), overproduced from pFAT586; digitonin-solubilized membranes
stoichiometry N [2]: ≤ 4

B3: TatC with a hexa-histidine tag on the C-terminus, produced alone from pFAT588 (natural protein, Escherichia coli (strain MC4100), UniProt P69423 1-258, looked up)
chain: MVSVEDTQPLITHLIELRKRLLNCIIAVIVIFLCLVYFANDIYHLVSAPLIKQLPQGSTMIATDVASPFFTPIKLTFMVSLILSAPVILYQVWAFIAPALYKHERRLVVPLLVSSSLLFYIGMAFAYFVVFPLAFGFLANTAPEGVQVSTDIASYLSFVMALFMAFGVSFEVPVAIVLLCWMGITSPEDLRKKRPYVLVGAFVVGMLLTPPDVFSQTLLAIPMYCLFEIGVFFSRFYVGKGRNREEENDAEAESEKTEE
notes: TatC, Escherichia coli; tatC gene amplified from chromosomal DNA of strain MC4100, cloned NcoI/BglII into pQE60; protomer molecular weight printed as 28.9 kDa; also called TatCHis; source: E. coli strain C43(DE3) or its ΔtatABC derivative C43ΔTat(DE3), overproduced from pFAT588; digitonin-solubilized membranes; not shown: His6, C-terminal, kept
stoichiometry N [3]: ≤ 7
